Data as given in publication PMC8095197 (bioRxiv, 2021).

Biological target: SARS-CoV-2 RBD (SARS-CoV-2, reference (Wuhan-Hu-1) …, UniProt P0DTC2)
Experiment: ELISA

B1: DH1047 IgG (antibody, V domains shown)
VH: QVQLVQSGAEVKKPGASVQVSCQASANTFTNHYIHWVRQAPGQGLEWMGIIYPTGGNTIYAQGFQGRVTMTRDTSLNTIYLELSSLRSEDTAVYYCARDVRVDDSWSGYDLLSGGTYFDYWGQGTLVTVSS
VL: not shown
B1: binds.
